From PMC3075667

Columns and labels:
[1] = target: Δ79AAG wild type (human) (UniProt P29372); test: EMSA
[2] = target: Δ79AAG wild type (human) (UniProt P29372); test: competition
[3] = 3,N4-ethenocytosine opposite G (G19)

Chain of UniProt P29372 (P29372 84-298, stated change not applied): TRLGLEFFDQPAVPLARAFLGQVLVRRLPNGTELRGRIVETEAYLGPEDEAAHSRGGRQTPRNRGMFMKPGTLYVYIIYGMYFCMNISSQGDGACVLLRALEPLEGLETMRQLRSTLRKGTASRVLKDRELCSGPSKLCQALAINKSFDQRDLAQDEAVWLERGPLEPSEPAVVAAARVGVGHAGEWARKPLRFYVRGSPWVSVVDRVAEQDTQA

Substance | Kd ([1]; 1,N6-ethenoadenine opposite T) [nM] | IC50 ([2]; 1,N6-ethenoadenine opposite T) [nM] | Kd [1, 3] [nM] | IC50 [2, 3] [nM]
ϵA:T 13-mer | 46 | 163 |  | 
ϵC:G 13-mer |  |  | 21 | 39
